Values quoted from earlier work in publication PMC11346406.

Target: TDP-43 PLD (Homo sapiens) (UniProt Q13148)
Test: NMR

TDP-43 PLD (Homo sapiens), sequence (Q13148 274-414): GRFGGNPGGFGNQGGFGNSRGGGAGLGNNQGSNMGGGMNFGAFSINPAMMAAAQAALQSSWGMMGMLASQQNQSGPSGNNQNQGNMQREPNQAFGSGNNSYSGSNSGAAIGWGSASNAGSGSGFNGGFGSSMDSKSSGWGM
TDP-43 RRM1-RRM2, sequence (Q13148 102-269): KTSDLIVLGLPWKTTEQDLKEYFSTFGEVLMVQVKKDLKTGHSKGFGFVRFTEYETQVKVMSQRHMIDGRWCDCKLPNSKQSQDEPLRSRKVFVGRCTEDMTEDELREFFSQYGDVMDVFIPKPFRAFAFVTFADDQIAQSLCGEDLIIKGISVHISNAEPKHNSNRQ

- Kd: 5 µM
Substance: TDP-43 RRM1-RRM2 (from UniProt Q13148)
